{"source": "paper PMC10085699", "key": {"Sen1-HD": {"target": "T1, Sen1-HD (UniProt Q00416 1095-1904)", "T1 sequence": "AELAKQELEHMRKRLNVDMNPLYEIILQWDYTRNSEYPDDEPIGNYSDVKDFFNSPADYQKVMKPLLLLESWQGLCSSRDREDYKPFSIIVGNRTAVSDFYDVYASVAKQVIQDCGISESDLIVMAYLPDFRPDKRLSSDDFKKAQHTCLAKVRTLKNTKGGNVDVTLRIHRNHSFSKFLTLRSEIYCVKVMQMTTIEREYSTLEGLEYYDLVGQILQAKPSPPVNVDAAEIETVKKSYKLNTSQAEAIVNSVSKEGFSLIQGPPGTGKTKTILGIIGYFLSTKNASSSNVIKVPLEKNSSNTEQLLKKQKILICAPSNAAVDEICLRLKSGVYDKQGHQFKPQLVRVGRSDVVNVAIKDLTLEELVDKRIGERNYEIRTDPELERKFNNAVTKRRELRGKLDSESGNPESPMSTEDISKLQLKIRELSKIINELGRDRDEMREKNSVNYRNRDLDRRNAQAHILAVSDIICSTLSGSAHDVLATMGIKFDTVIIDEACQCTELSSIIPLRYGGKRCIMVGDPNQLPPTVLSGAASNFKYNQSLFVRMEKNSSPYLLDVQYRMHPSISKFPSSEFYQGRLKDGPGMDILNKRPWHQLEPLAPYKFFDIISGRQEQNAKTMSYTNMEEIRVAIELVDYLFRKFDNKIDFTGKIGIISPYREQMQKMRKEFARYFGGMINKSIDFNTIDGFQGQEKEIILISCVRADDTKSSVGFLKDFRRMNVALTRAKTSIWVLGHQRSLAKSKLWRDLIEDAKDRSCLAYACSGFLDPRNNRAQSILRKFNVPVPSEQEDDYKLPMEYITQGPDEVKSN", "assay": "EMSA"}, "SETX-HD-DE/AA": {"target": "T2, SETX-HD-DE/AA (Homo sapiens, UniProt Q7Z333 1674-2677, D2181A;E2182A)", "T2 sequence": "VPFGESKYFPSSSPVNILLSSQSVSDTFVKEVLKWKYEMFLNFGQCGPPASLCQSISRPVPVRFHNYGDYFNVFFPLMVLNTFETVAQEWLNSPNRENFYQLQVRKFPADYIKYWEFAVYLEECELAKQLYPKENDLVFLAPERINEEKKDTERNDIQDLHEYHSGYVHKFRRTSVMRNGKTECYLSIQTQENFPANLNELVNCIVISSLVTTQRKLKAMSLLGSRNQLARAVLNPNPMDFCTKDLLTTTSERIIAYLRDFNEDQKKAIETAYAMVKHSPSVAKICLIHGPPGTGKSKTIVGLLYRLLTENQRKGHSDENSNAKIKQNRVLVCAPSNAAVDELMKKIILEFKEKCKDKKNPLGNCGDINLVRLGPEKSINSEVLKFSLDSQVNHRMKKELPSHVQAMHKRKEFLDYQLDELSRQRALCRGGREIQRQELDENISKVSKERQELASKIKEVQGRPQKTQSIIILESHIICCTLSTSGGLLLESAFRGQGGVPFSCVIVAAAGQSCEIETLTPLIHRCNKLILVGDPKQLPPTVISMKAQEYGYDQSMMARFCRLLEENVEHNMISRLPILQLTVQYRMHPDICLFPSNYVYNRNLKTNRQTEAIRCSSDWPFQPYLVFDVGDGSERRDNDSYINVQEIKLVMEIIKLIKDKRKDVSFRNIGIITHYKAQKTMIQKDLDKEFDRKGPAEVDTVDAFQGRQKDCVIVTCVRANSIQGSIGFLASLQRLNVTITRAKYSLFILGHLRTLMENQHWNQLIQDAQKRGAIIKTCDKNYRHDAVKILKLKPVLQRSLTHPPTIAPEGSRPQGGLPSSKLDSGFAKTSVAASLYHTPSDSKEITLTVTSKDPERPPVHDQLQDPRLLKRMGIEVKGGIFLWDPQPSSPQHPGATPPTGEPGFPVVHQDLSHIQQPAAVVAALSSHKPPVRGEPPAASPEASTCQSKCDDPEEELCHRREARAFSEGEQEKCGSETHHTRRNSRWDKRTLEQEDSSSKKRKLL", "assay": "EMSA"}}, "data": [{"binder": "ssRNA pRMS678 (61 nt) (ssRNA) RNA: UUGUCUUCUCAUAAAUUUAAUCCCCGUACGCUUAUACUCCUUUAACUACCCAGUCUUCCCG", "values": [{"measurement": "binding result", "setting": "Sen1-HD", "result": "binds"}, {"measurement": "binding result", "setting": "SETX-HD-DE/AA", "result": "binds"}]}]}
